T1: NPDP19 peptide (Plasmodium falciparum CSP junction, …)
T1 construct: also called peptide NPDP-19
T1 chain: KQPADGNPDPNANPNVDPN

T2: peptide 21 (Plasmodium falciparum CSP junction, …)
T2 construct: also called NP-DPNA-NPNV-DPNA-N
T2 chain: NPDPNANPNVDPNAN

B1: mAb CIS43 (antibody, V domains shown)
VH: QVQLVQSGAEVKKPGASVKVSCKASGYTFTSYAIHWVRQAPGQRLEWMGWIKAGNGNTRYSQKFQDRVTITRDTSTTTAYMELSSLRSEDTAVYYCALLTVLTPDDAFDIWGQGTMVTVSS
VL: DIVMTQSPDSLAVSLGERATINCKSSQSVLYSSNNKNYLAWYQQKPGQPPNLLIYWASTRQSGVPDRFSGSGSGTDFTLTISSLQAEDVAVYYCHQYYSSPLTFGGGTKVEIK
B2: mAb 317 (antibody, V domains shown)
VH: QMQLVESGGGVVQPGRSLRLSCTASGFTFSTYAMHWVRQSPGQGLQWVAVISYHSTNKYYEDSVRGRFTISRDNSKNTLYLQMNSLRAEDTAVYYCARDGYSSSFFDFWGQGTLVTVSS
VL: DIQMTQSPSTLSASVGDRVAITCRASQSISRWLAWYQQQPGKAPKLLMSGASVLESGVPSRFSGSGSGTEFTLTISSLQPDDFATYYCQHYNSYFVTFGQGTKVEIK
B3: mAb MGG4 (antibody, V domains shown)
VH: QVQLVESGGGVVQPGRSLRLSCAASGFRFSDYGMHWVRQAPGKGLEWVALIWYDGSNESYLDSVKGRFTISRDNSKNTLYLQMNNLRTEDTAVYYCAKLLVGITTDVFDVWGQGTVVTVSS
VL: DIVMTQSPDSLAVSLGERATINCRSSQSVLSSSNNKNYLAWYQHKPRQPPKLLIYWASTRESGVPDRFSGSGSGTDFTLTISSLQAEDVAVYYCQQYYTASPFFGGGTKVEIK
B4: mAb 311 (antibody, V domains shown)
VH: QVQLVESGGGVVPPGRSLRLSCATSGFTFSNYGMHWVRQAPGKGLEWVAIIWYDGSRNFYAASVEGRFTISRDNSKNTLYLQMNSLRVEDTAVYYCARAAYYDTSGYGDYWGQGTLVTVSS
VL: QSVLTQPPSVSGAPGQTVTISCTGGSSNIGAGYDVHWYQQLPGTAPKLLIYGNINRPSGVPDRFSGSKSGTSASLAITGLQAEDEADYYCQSYDRRLSGSWVFGGGTKLTVL
B5: mAb 663 (antibody, V domains shown)
VH: EVQLLESGGGLEQPGGSLRLSCVVSGFTFSNYAFNWVRQAPGKGLEWVAIIYRSGSRMYHADSVKGRFTISRDDSKNTLFLQMNNLRAEDTAVYYCTTLLIYESDVGVDFWGQGTLVTVSS
VL: DIVMTQSPLSLPVSPGEPASISCRSTQSLIFGEHNYLDWYLQKPGQSPQLLIYLASNRASGVPDRFSGSGSGTYFTLKISRVEAEDFGVYYCVQTVQVPYTFGQGTKLEIK
B6: Fab CIS43 (Fab, V domains shown)
VH: B1 VH
VL: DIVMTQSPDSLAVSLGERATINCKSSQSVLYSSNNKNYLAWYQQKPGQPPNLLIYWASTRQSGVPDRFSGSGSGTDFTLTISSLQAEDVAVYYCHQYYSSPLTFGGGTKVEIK
B7: Fab 317 (Fab, V domains shown)
VH: B2 VH
VL: B2 VL
B8: Fab MGG4 (Fab, V domains shown)
VH: B3 VH
VL: B3 VL
notes: also called MGG4 Fab
B9: Fab 311 (Fab, V domains shown)
VH: B4 VH
VL: B4 VL
B10: Fab 663 (Fab, V domains shown)
VH: B5 VH
VL: B5 VL

The binders below were run against T3, NANPx6 peptide (Plasmodium falciparum CSP repeat, …) (assay: ELISA). Details: both partners purified.
T3 construct: also called NANP6; short repeat peptide
B1 was tested, and the “ng/ml mAb needed for OD = 1” value was < 10 ng/mL. For B2, the “ng/ml mAb needed for OD = 1” value was < 10 ng/mL. B3 was tested, and the “ng/ml mAb needed for OD = 1” value was < 10 ng/mL. With B4 the “ng/ml mAb needed for OD = 1” value was < 10 ng/mL. For B5, the “ng/ml mAb needed for OD = 1” value was < 10 ng/mL.

What follows are binders tested against T4, P. falciparum CSP on transgenic P. berghei sporozoites (Plasmodium falciparum, gene strain not …, UniProt Q7K740) (assay: ELISA). Details: one partner purified.
T4 construct: also called transgenic P. berghei sporozoites carrying the P. falciparum CSP gene; transgenic P. berghei-falciparum sporozoites
B3: binds. B4: binds. B5: binds.

Molecular target: T1, NPDP19 peptide
Assay: ELISA
Details: both partners purified
B1: binds. B3: binds. B4: binds. B5: binds.

Molecular target: T2, peptide 21
Assay: ELISA
Details: both partners purified
B1: binds.

What follows are binders tested against T5, biotinylated NANPx6 (Plasmodium falciparum CSP repeat, …) (assay: BLI; Octet RED96; biotinylated FL-CSP or biotinylated NANPx6 on streptavidin biosensors, Fab in solution, kinetics buffer; global fit to 1:1 Langmuir model). Details: both partners purified.
T5 construct: also called NANPx6 peptide; NANPx6 target antigen
B6 was tested, and the Kd was 41 nM, the koff was 0.0017 s⁻¹ and the kon was 40000 M⁻¹ s⁻¹. B7 showed a Kd of 0.003 nM. In the case of B8, the Kd is reported as 51 nM, the koff is reported as 0.0045 s⁻¹ and the kon is reported as 90000 M⁻¹ s⁻¹. With B9 the Kd was 7 nM, the koff was 0.0002 s⁻¹ and the kon was 27000 M⁻¹ s⁻¹. With B10 the Kd was 138 nM, the koff was 0.056 s⁻¹ and the kon was 400000 M⁻¹ s⁻¹.

What follows are binders tested against P. falciparum sporozoite CSP (Plasmodium falciparum NF54, UniProt P19597) (assay: cell-based or functional assay). Details: not given.
B1 gave an other of ~100%. With B3 the other was ~100%. B4 was tested, and the other was ~100%. Binder B5 has an other of ~100%.

— article PMC7970865 (Scientific Reports, 2021)
